{"source": "paper PMC3774798", "about": "(PLoS ONE, 2013)", "key": {"[1]": {"target": "T1, PA4781HD-GYP (Pseudomonas aeruginosa, UniProt Q9HV27)", "T1 construct": "gene PA4781; HD-GYP domain, first 111 residues (REC domain) removed, His-tag (pET28b), E. coli BL21(DE3); mainly monomer", "T1 sequence (Q9HV27 112-393)": "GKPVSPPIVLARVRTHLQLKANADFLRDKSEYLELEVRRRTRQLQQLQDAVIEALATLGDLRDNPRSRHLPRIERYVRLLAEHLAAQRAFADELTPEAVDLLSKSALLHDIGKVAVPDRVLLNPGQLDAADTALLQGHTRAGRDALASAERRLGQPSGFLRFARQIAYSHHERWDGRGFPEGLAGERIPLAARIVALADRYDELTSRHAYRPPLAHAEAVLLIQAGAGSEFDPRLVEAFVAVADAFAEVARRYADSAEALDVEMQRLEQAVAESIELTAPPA", "assay": "RP-HPLC of nucleotides, turnover", "format": "biochemical", "details": "REC domain removed, not phosphorylated; pH 8, 30 °C, Mg2+ and/or Mn2+"}, "[2]": {"system": "Nc1nc2c(ncn2[C@@H]2O[C@H](COP(=O)(O)O[C@H]3[C@@H](O)[C@H](n4cnc5c(=O)[nH]c(N)nc54)O[C@@H]3COP(=O)(O)O)[C@@H](O)[C@H]2O)c(=O)[nH]1", "assay": "purified protein", "details": "Mg2+ and/or Mn2+"}, "[3]": {"system": "Nc1nc2c(ncn2[C@@H]2O[C@@H]3CO[P@](=O)(O)O[C@H]4[C@@H](O)[C@H](n5cnc6c(=O)[nH]c(N)nc65)O[C@@H]4CO[P@](=O)(O)O[C@H]3[C@H]2O)c(=O)[nH]1", "assay": "purified protein"}, "[4]": {"details": "50 mM Tris-HCl pH 8, 150 mM NaCl, 30 °C, may be apparent value (about 30% c-di-GMP still bound to protein)"}, "[5]": {"details": "10 mM MgCl2 and 2.5 mM MnCl2, 50 mM Tris-HCl pH 8, 150 mM NaCl, 30 °C, 0.64 µM enzyme"}, "[6]": {"details": "protein phosphorylated with acetyl phosphate (extent unknown), pH 8, 30 °C"}}}
{"compound": "Nc1nc2c(ncn2[C@@H]2O[C@@H]3COP(=O)(O)O[C@H]4[C@@H](O)[C@H](n5cnc6c(=O)[nH]c(N)nc65)O[C@@H]4COP(=O)(O)O[C@H]3[C@H]2O)c(=O)[nH]1", "note": "[c-di-GMP]", "values": [{"measurement": "RP-HPLC of nucleotides, turnover", "setting": "[1]", "value": "displays little, but significant PDE activity"}]}
{"compound": "PA4108 (Pseudomonas aeruginosa PAO1)", "values": [{"measurement": "Km", "setting": "[2]; [4]", "value": "30 ± 9", "unit": "µM"}, {"measurement": "kcat", "setting": "[2]; [4]", "value": "1.2±0.1x10^-3 s^-1"}, {"measurement": "Km", "setting": "[3]; [5]", "value": "20 ± 5", "unit": "µM"}, {"measurement": "kcat", "setting": "[3]; [5]", "value": "0.00015 ± 1e-05", "unit": "s⁻¹"}]}
{"compound": "PA4781 (Pseudomonas aeruginosa PAO1)", "values": [{"measurement": "Km", "setting": "[2]; [6]", "value": "27 ± 8", "unit": "µM"}, {"measurement": "kcat", "setting": "[2]; [6]", "value": "7.7±1x10^-4 s^-1"}, {"measurement": "Km", "setting": "[3]; protein phosphorylated with acetyl phosphate (extent unknown), 10 mM MgCl2, pH 8, 30 °C", "value": "119 ± 30", "unit": "µM"}]}
